Experimental data from paper PMC2855763.

How the values were obtained:
[1] = molecular target: dVFP (VFP T160A) (Cyphastrea microphthalma); assay: SEC
[2] = molecular target: VFP (vivid Verde fluorescent protein) (Cyphastrea microphthalma); assay: SEC

stoichiometry N [1]	stoichiometry N [2]	Substance
2		dVFP (VFP T160A) (natural protein)
	2	VFP (vivid Verde fluorescent protein) (natural protein)
